From US20100322937A1 (published 2010)

Assays:
[1] = target: T1, wtEGFR: full-length human EGFR with FLAG tag after the leader, on BaF/3 cells (human, UniProt P00533 25-1210); assay: cell-based or functional assay
[2] = target: T2, Y^246F EGFR (full-length human, FLAG tag) on BaF/3 cells (human, UniProt P00533 25-1210); assay: cell-based or functional assay
[3] = target: T3, Y^246W EGFR (full-length human, FLAG tag) on BaF/3 cells (human, UniProt P00533 25-1210); assay: cell-based or functional assay
[4] = target: T4, Y^246D EGFR (full-length human, FLAG tag) on BaF/3 cells (human, UniProt P00533 25-1210); assay: cell-based or functional assay
[5] = target: T5, V^583D EGFR (full-length human, FLAG tag) on BaF/3 cells (human, UniProt P00533 25-1210); assay: cell-based or functional assay
[6] = target: T6, D^563H EGFR (full-length human, FLAG tag) on BaF/3 cells (human, UniProt P00533 25-1210); assay: cell-based or functional assay
[7] = target: T7, E^578C EGFR (full-length human, FLAG tag) on BaF/3 cells (human, UniProt P00533 25-1210); assay: cell-based or functional assay
[8] = target: T1, wtEGFR: full-length human EGFR with …; assay: Scatchard, 125I-EGF on BaF/3 cells
Method: (§1) Ligand binding to cells expressing the wt or mutant EGFR was determined at room temperature in the presence of the internalization inhibitor phenylarsine oxide (PAO) (29) by cold saturation experiments. […] All experimental points were prepared in triplicate. At the end of the incubation, the cells were pelleted and washed twice in ice-cold PBS before transferring to fresh tubes for counting in a Wallac WIZARD γ-counter (PerkinElmer, Boston, Mass.). Scatchard plots and estimates of ligand binding affinities and receptor numbers were obtained using the Radlig program (BioSoft, Cambridge, UK).
(§2) Data were analyzed using the “Kell for Windows” RadLig program. ^{(a)}Number of receptors per cell were calculated from the Bₘₐₓ and the number of cells/tube in each ligand binding experiment.

[9] = target: T2, Y^246F EGFR (full-length human, FLAG …); assay: Scatchard, 125I-EGF on BaF/3 cells
Method: as §1, §2

[10] = target: T3, Y^246W EGFR (full-length human, FLAG …); assay: Scatchard, 125I-EGF on BaF/3 cells
Method: as §1, §2

[11] = target: T4, Y^246D EGFR (full-length human, FLAG …); assay: Scatchard, 125I-EGF on BaF/3 cells
Method: as §1, §2

[12] = target: T5, V^583D EGFR (full-length human, FLAG …); assay: Scatchard, 125I-EGF on BaF/3 cells
Method: as §1, §2

[13] = target: T6, D^563H EGFR (full-length human, FLAG …); assay: Scatchard, 125I-EGF on BaF/3 cells
Method: as §1, §2

[14] = target: T7, E^578C EGFR (full-length human, FLAG …); assay: Scatchard, 125I-EGF on BaF/3 cells
Method: as §1, §2

[15] = target: T8, L^245C/E^578C EGFR (full-length human, FLAG tag) on BaF/3 cells (human, UniProt P00533 25-1210); assay: Scatchard, 125I-EGF on BaF/3 cells
T8 construct: whole, on cells
Method: as §1, §2

[16] = target: T1, wtEGFR: full-length human EGFR with …; assay: calculated from Scatchard Kd and Bmax
Method: as §1
(§3) The data are representative of at least three separate experiments

[17] = target: T2, Y^246F EGFR (full-length human, FLAG …); assay: calculated from Scatchard Kd and Bmax
Method: as §1, §3

[18] = target: T3, Y^246W EGFR (full-length human, FLAG …); assay: calculated from Scatchard Kd and Bmax
Method: as §1, §3

[19] = target: T4, Y^246D EGFR (full-length human, FLAG …); assay: calculated from Scatchard Kd and Bmax
Method: as §1, §3

[20] = target: T5, V^583D EGFR (full-length human, FLAG …); assay: calculated from Scatchard Kd and Bmax
Method: as §1, §3

[21] = target: T6, D^563H EGFR (full-length human, FLAG …); assay: calculated from Scatchard Kd and Bmax
Method: as §1, §3

[22] = target: T7, E^578C EGFR (full-length human, FLAG …); assay: calculated from Scatchard Kd and Bmax
Method: as §1, §3

[23] = target: T1, wtEGFR: full-length human EGFR with …; assay: Scatchard, 125I-EGF on BaF/3 cells, Kd2 (low-affinity site)
Method: as §1, §2

[24] = target: T2, Y^246F EGFR (full-length human, FLAG …); assay: as above
Method: as §1, §2

[25] = target: T3, Y^246W EGFR (full-length human, FLAG …); assay: as above
Method: as §1, §2

[26] = target: T4, Y^246D EGFR (full-length human, FLAG …); assay: as above
Method: as §1, §2

[27] = target: T5, V^583D EGFR (full-length human, FLAG …); assay: as above
Method: as §1, §2

[28] = target: T6, D^563H EGFR (full-length human, FLAG …); assay: as above
Method: as §1, §2

[29] = target: T7, E^578C EGFR (full-length human, FLAG …); assay: as above
Method: as §1, §2

[30] = target: T8, L^245C/E^578C EGFR (full-length human, …); assay: as above
Method: as §1, §2

[31] = target: T1, wtEGFR: full-length human EGFR with …; assay: Scatchard, 125I-EGF on BaF/3 cells, Kd1 (high-affinity site)
Method: as §1, §2

[32] = target: T5, V^583D EGFR (full-length human, FLAG …); assay: as above
Method: as §1, §2

[33] = target: T6, D^563H EGFR (full-length human, FLAG …); assay: as above
Method: as §1, §2

B1: Murine EGF, purified from mouse submaxillary glands (ligand, UniProt P01132 977-1029, looked up)
chain: NSYPGCPSSYDGYCLNGGVCMHIESLDSYTCNCVIGYSGDRCQTRDLRWWELR
modifications: iodinated with 125I (Iodogen) as tracer in the Scatchard assays
notes: mature; also called ^125I-EGF
% maximal incorporation ([^3H]Thymidine) [1]: 100% | EC50 for EGF ([^3H]Thymidine incorporation) [1]: 0.012 nM | % maximal incorporation ([^3H]Thymidine) [2]: 16% | EC50 for EGF ([^3H]Thymidine incorporation) [2]: 0.03 nM | % maximal incorporation ([^3H]Thymidine) [3]: 0% | % maximal incorporation ([^3H]Thymidine) [4]: 0% | % maximal incorporation ([^3H]Thymidine) [5]: 100% | EC50 for EGF ([^3H]Thymidine incorporation) [5]: 0.006 nM | % maximal incorporation ([^3H]Thymidine) [6]: 90% | EC50 for EGF ([^3H]Thymidine incorporation) [6]: 0.005 nM | % maximal incorporation ([^3H]Thymidine) [7]: 100% | EC50 for EGF ([^3H]Thymidine incorporation) [7]: 0.1 nM | % of sites (Kd1) [8]: 2.6% | % of sites (Kd2) [8]: 97.5% | R/cell (from Bmax) [8]: 34000 receptors/cell | % of sites (Kd2) [9]: 100% | R/cell (from Bmax) [9]: 30000 receptors/cell | % of sites (Kd2) [10]: 100% | R/cell (from Bmax) [10]: 29000 receptors/cell | % of sites (Kd2) [11]: 100% | R/cell (from Bmax) [11]: 12000 receptors/cell | % of sites (Kd1) [12]: 12.6% | % of sites (Kd2) [12]: 90.8% | R/cell (from Bmax) [12]: 38000 receptors/cell | % of sites (Kd1) [13]: 4.4% | % of sites (Kd2) [13]: 96.4% | R/cell (from Bmax) [13]: 23000 receptors/cell | % of sites (Kd2) [14]: 100% | R/cell (from Bmax) [14]: 34500 receptors/cell | % of sites (Kd2) [15]: 100% | [EGF] at which 500R/cell are occupied [16]: 16 pM | [EGF] at which 500R/cell are occupied [17]: 30 pM | [EGF] at which 500R/cell are occupied [18]: 60 pM | [EGF] at which 500R/cell are occupied [19]: 400 pM | [EGF] at which 500R/cell are occupied [20]: < 1 pM | [EGF] at which 500R/cell are occupied [21]: 8 pM | [EGF] at which 500R/cell are occupied [22]: 80 pM | Kd [23]: 1.6 nM | Kd [24]: 2.8 nM | Kd [25]: 2.5 nM | Kd [26]: 2.1 nM | Kd [27]: 1.3 nM | Kd [28]: 1.7 nM | Kd [29]: 1.7 nM | Kd [30]: 2.1 nM | Kd [31]: 0.029 nM | Kd [32]: 0.0026 nM | Kd [33]: 0.0176 nM
